Values quoted from earlier work in PMC6769993, “Immunomodulatory Functions of the Human Cathelicidin LL-37 (aa 13–31)-Derived Peptides are Associated with Predicted α-Helical Propensity and Hydrophobic Index” (Biomolecules, 2019).

Text: The minimum region of LL-37 required for its immunomodulatory functions is an internal sequence from amino acids 13–31 [13], known as peptide IG-19. […] IG-19 suppresses inflammatory cytokine production by engaging various signaling intermediates in the presence of bacterial endotoxin or cytokine IL-32 [10, 13, 14]. Both LL-37 and IG-19 also share structural similarities; these are both α-helical amphipathic peptides with net positive charges of +6 and +5, respectively. Previous s ...

LL-37: the only human cathelicidin cationic host defense peptide, 37 amino acids
Net positive charge: +6
